Assay [1] has as its target T1, human PACAP38 (human, not fully specified; C-terminal lysine is amidated; N-terminal or C-terminal biotin in the HTRF and PC-12 cell binding assays).
T1 construct: synthetic peptide, bought; also called huPACAP (1-38)
T1 peptide: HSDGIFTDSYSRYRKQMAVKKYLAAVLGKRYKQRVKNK
The experiment in a line: SPR, Ab immobilised. The gist of the method: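 SPR with antibody amine-coupled to the chip and human PACAP38 flowed as analyte at 1.23–100 nM in PBST containing 0.25 M arginine, 0.2 mg/ml BSA and 0.005% azide, pH 7. Association lasted 2–4 min and dissociation 3–120 min. Kinetics were fitted to a 1:1 Langmuir model.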
For orientation: Surface plasmon resonance follows binding to a sensor surface in real time, without labels.

Assay [2] has as its target T2, human PACAP27 (human, C-terminal leucine is amidated; 125I-labelled in Example 10).
T2 peptide: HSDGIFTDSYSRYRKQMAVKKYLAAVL
The experiment in a line: SPR, Ab immobilised.

Assay [3] has as its target T3, human VIP (human).
T3 construct: also called Vasoactive Intestinal Peptide
T3 peptide: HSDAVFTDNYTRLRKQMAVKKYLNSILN
In words: SPR, Ab immobilised.

For assay [4], the target named is T1, human PACAP38. In words: cell-based or functional assay.
Assay [5] addresses T1, human PACAP38. The experiment in a line: cell-based or functional assay.
Assay [6] concerns the target T1, human PACAP38. In words: cell-based or functional assay.
Assay [7] has as its target T1, human PACAP38. In words: HTRF binding, biotin-PACAP38. The method, boiled down:
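Antibody dilution series (top 100 nM final) incubated with N- or C-terminal biotinylated PACAP38 (35 nM final), alone or with 350 nM PACAP27 or VIP. HTRF with Eu³⁺ anti-human Fc donor and d2-streptavidin acceptor, 1 h at room temperature, read at 620/665 nm; EC₅₀ from binding curves.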

Assay [8] deals with T1, human PACAP38. In words: inhibition of 30 nM biotin-PACAP38 binding to PC-12 cells, TRF. Here is the method:
To identify antibodies that block PACAP38 binding to PAC1-R-expressing cells, adherent PC-12 cells (ATCC, Manassas, Va.) expressing PAC1-R were used in a Europium-based PAC1-R expressing cells binding assay.
Antibody solutions were incubated with N-terminal biotinylated PACAP38 at 10× the final concentration (100 nM or 30 nM) for 1 hr, then added to PC-12 cells that were plated 24 hrs. prior in black clear bottom 96 well plates (COSTAR™, Corning Incorporated, Corning, N.Y.) and further incubated for 1 hr at room temperature. After three washes, the cells were incubated with 20 μl Europium-labeled streptavidin (PerkinElmer, Waltham, Mass.) for 1 hr at room temperature. Cells were washed three times, then 20 μl DELFIA® Enhancement solution (PerkinElmer, Waltham, Mass.) was added to each well and incubated for 15 minutes with gentle shaking. Plates were read (Time Resolved Fluorescence (“TRF”)) on SPECTRAMAX® (Molecular Devices, Sunnyvale, Calif.) plate reader.
FIGS. 14A-14BB are representative of the inhibition curves obtained by this method (results are shown for Ab1, Ab2, Ab3, Ab4, Ab5, Ab6, Ab7, Ab8, Ab9, Ab10, Ab11, Ab12, Ab13, Ab14, Ab15, Ab16, Ab17, Ab18, Ab19, Ab1.H, Ab10.H, Ab22, Ab23, Ab3.H, Ab4.H, Ab5.H, Ab9.H, and Ab12.H, respectively) wherein the PAC1-R expressing cells were PC-12 cells.

Assay [9] has as its target T2, human PACAP27. The experiment in a line: cell-based or functional assay.
The target in assay [10] is T2, human PACAP27. In words: inhibition of 0.1 nM 125I-PACAP27 binding to human PAC1-R membranes. Here is the method:
To identify antibodies that block PACAP27 binding to PAC1-R, antibodies at an initial concentration of 30 nM were diluted in incubation buffer (50 mM Hepes pH 7.4, 1 mM CaCl₂, 5 mM MgCl₂, 0.2% BSA) and serial 1:3 dilutions were performed. Antibody dilutions (30 nM, 10 nM, 3 nM, 1 nM, 0.3 nM, 0.1 nM, 0.03 nM, 0.01 nM, 0.003 nM and 0.001 nM) were then mixed and pre-incubated at 25° C. for 30 minutes with 0.1 nM of ¹²⁵I-labelled PACAP27 in incubation buffer. The antibody: ¹²⁵I-labelled PACAP27 mixture was then added to 0.5 μg aliquots of cell membranes derived from Chem-1 cells expressing human recombinant PAC1-R long isoform in incubation buffer. The mixture was then incubated for 1 hour at 25° C. Following incubation, the samples were filtered and washed. Afterward, the filters were counted to quantitate ¹²⁵I-labelled PACAP27. As an experimental control, non-specific binding to the cell membranes was estimated using 0.1 μM of […] PACAP27.

As a reminder, the Kd is the constant that tells how readily two partners part at equilibrium. A high value points to weaker binding. Usually koff stands for the rate constant with which the complex falls apart. The low end stands for slow dissociation, the high end for fast dissociation. In general, kon refers to a measure of how fast the partners come together. For orientation: EC50 means the concentration that produces a half-maximal response. For orientation: IC50 means the concentration at which inhibition is half-maximal. A low value points to higher potency.

B1: anti-PACAP antibody Ab23 (antibody, human IgG1, kappa, N297A, V domains shown)
VH: QSVEESGGRLVTPGTPLTLTCTVSGFSLNNYAMSWVRQAPGKGLEWIGIMGVNDITYYASWAKGRFTISKTSTTVDLKMTSLTTEDTATYFCTREIRDDGDSSDKLWGPGTLVTVSS
VL: AIKMTQTPSSVSAAVGGTVTINCQASEDIYTNLAWYQQKPGQPPNLLIYDASDLASGVPSRFSGSGDGTQFTLTISAVQCEDAATYYCQGVAWSSNTGYGSAFGGGTEVVVKR
notes: full-length rabbit/human chimeric antibody; PACAP38 specific
Turning to B1, in assay [1], binding was characterised by a dissociation constant (Kd) of 0.071 nM, the koff was 3.6e-05 s⁻¹ and the kon worked out at 510000 M⁻¹ s⁻¹. Moreover, in [2], the Kd came to 35 nM, the koff turned out to be 0.031 s⁻¹ and the kon came out at 890000 M⁻¹ s⁻¹. Further, in [3], the Kd was found to be 730 nM, the koff was 0.32 s⁻¹ and the kon is 430000 M⁻¹ s⁻¹. Besides, in assay [4], the “IC50, 0.1 nM PACAP38-induced PAC1-R mediated cAMP increase” value came out at 0.115 nM. Moreover, in assay [5], the “IC50, 5 nM PACAP38-induced human VPAC1-R mediated cAMP increase” value came out at 2.67 nM. Besides, in assay [6], the “IC50, 1 nM PACAP38-induced human VPAC2-R mediated cAMP increase” value is 1.79 nM. The EC50 in assay [7] is 0.56 nM. In addition, the IC50 in assay [8] was 14.9 nM.

B2: anti-PACAP antibody Ab12.H (antibody, human IgG1, kappa, N297A, V domains shown)
VH: EVQLVESGGGLVQPGGSLRLSCAASGFSLSSYAMGWVRQAPGKGLEWIGDISTYGTTDYASWVYGRFTISRDNSKNTVYLQMNSLRAEDTAVYFCARDYWLSLWGQGTLVTVSS
VL: AAQLTQSPSTLSASVGDRVTITCQSSQSVYDNNALAWYQQKPGKAPKLLIYAASTLASGVPSRFSGSGSGTEFTLTISSLQPDDFATYYCLGGYYDPADNAFGGGTKVEIKR
notes: humanized form of Ab12, full length
With B2, the Kd was no more than 0.026 nM in assay [1], 0.3 nM in assay [2] and 51 nM in assay [3]. In addition, the results for the koff in assay [1], in assay [2] and in [3] were no more than 1e-05 s⁻¹, 7.9e-05 s⁻¹ and 0.014 s⁻¹, respectively. The kon in [1] is 380000 M⁻¹ s⁻¹; in [2], 260000 M⁻¹ s⁻¹; in assay [3], 280000 M⁻¹ s⁻¹. The “IC50, 0.1 nM PACAP38-induced PAC1-R mediated cAMP increase” value in assay [4] came to 0.114 nM. Besides, the “IC50, 0.1 nM PACAP27-induced PAC1-R mediated cAMP increase” value in assay [9] was 0.0863 nM. Also, the “IC50, 5 nM PACAP38-induced human VPAC1-R mediated cAMP increase” value in [5] came out at 1.28 nM. The “IC50, 1 nM PACAP38-induced human VPAC2-R mediated cAMP increase” value in assay [6] was found to be 0.653 nM. In addition, the IC50 amounted to 68.1 nM in [8] and 0.16 nM in [10].

B3: anti-PACAP antibody Ab1.H (antibody, human IgG1, kappa, N297A, V domains shown)
VH: EVQLVESGGGLVQPGGSLRLSCAASGFTVSSAVMNWVRQAPGKGLEWIGSIVASGTTYYASSANGRFTISRDNSKNTLYLQMNSLRAEDTAVYYCARGGGEFFIWGQGTLVTVSS
VL: DIQMTQSPSTLSASVGDRVTITCQSSESVYSNYLSWYQQKPGKAPKFLIYQASNLASGVPSRFSGSGSGTEFTLTISSLQPDDFATYYCAGGYSENIVGFGGGTKVEIKR
notes: humanized form of Ab1, full length
For the molecule B3, the results for the Kd in assay [1], in assay [2] and in [3] were no more than 0.021 nM, no more than 0.013 nM and 4800 nM, respectively. Further, the koff in assay [1] was no more than 1e-05 s⁻¹; in assay [2], no more than 1e-05 s⁻¹; in assay [3], 0.18 s⁻¹. Also, the kon is 470000 M⁻¹ s⁻¹ in assay [1], 760000 M⁻¹ s⁻¹ in assay [2] and 38000 M⁻¹ s⁻¹ in assay [3]. Also, the “IC50, 0.1 nM PACAP38-induced PAC1-R mediated cAMP increase” value in assay [4] is 0.26 nM. In addition, the “IC50, 0.1 nM PACAP27-induced PAC1-R mediated cAMP increase” value in [9] came to 0.0577 nM. Further, in [5], the “IC50, 5 nM PACAP38-induced human VPAC1-R mediated cAMP increase” value was determined as 1.02 nM. The “IC50, 1 nM PACAP38-induced human VPAC2-R mediated cAMP increase” value in [6] stood at 0.983 nM. In addition, the EC50 in assay [7] was 0.46 nM. Further, the IC50 worked out at 56.3 nM in assay [8] and 0.7 nM in [10].

Values taken from patent US20190233498A1 (H LUNDBECK A S, published 2019).
